Measurements reported in paper PMC11672753.

Tests used:
[1] = biological target: S15-FX (human)
[2] = biological target: S15-HDEL (human)
S15-HDEL (human), sequence (heavy, as listed by the source, chain 1 of 2): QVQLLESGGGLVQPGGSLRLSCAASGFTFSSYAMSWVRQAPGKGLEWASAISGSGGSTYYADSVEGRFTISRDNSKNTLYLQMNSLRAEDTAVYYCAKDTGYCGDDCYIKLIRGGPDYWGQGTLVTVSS
S15-HDEL (human), sequence (light, as listed by the source, chain 2 of 2): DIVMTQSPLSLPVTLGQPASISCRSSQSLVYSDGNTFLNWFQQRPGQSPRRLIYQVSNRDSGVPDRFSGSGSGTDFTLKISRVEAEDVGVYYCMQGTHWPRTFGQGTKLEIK

S15-FX (human), sequence (heavy, as listed by the source, chain 1 of 2): as the sequence (heavy, as listed by the source, chain 1 of 2) above
S15-FX (human), sequence (light, as listed by the source, chain 2 of 2): as the sequence (light, as listed by the source, chain 2 of 2) above

## FcγRIIIa-dimer, biotinylated (from UniProt P08637 17-254) (receptor)
[1]
  NK cell activation (CD107 and IFNγ expression) by antigen-bound antibody, against the WT plant antibody: 3 fold
[2]
  NK cell activation (CD107 and IFNγ expression) by antigen-bound antibody, against the WT plant antibody: 3 fold
